Our source for the protein production values is a protein production outcome set (Wang et al. 2014).

The nature of the series: label from the status in PepcDB records.
With “MNRSDKWQQRVAQVAYRFNQQYQNQSLELPAEVQEMPIYREWISGILAGKIASPFWEMAQPQKNQHCLDIGCGVSFLIYPWRDWQAFFYGQDVSNVARDTLNSRGSQLNSKLFKGVELGAAHQLKYTLSYFDLAIATGFSCYFPLEYWTSVLQAVKRVLKPDGHFVFDILNAAHPQAEDWAVLETYLGAEVFLEPVTEWEKIINAAGAKVVGRQPGEFFDLYKLRLEHHHHHH”, the protein production entry was “failed”.

As for “MNRTKKRALTVRIVKTAISVALAAVIVVAMVLVNPQLSTNKLISSLMGYNHQSVDNGNASAGDADTNYYTADYTKENIRKAEDKLYDQIASEGTVLLKNDDNELPAQKGTTFSFFSANSVDGSSLTQGYLGTPETVTLKSAFTAAGFKVNETLWNYYESGAGKDYGLATGSVNYGDGEDFRINEAPLAALRKESGLLDSVRGTTPVYVLNRVVGEGRDMPRSMYNHADKQEDKEKSYIELDSTETEIIKYLNDNYKDVILLVKSSAAMELGWVADYPNIKAVVYSQNVTNALAKVFSGEVNPSGKTVDTFAADALASPAAQNFGSYQYYDGNGNATKYNYVDYAEGIYVGYKYYETRYEDKVLGQGNAGDYDYATEVVYPFGYGLSYTDFKWSDFSVATDGDDFVATVTVKNTGDVAGKDVVELYAQTPYTDYDKRNAVEKAAVNLVGYGKTAELEPGASETVKITFGKDQLKSYDYKGAKTYILDAGQYRFTAASDANQAINNILADKGKGMADGMTAEGDKAMVSSWTPENTDVDTTTFATDDATGKAIANLFDAASDPEVTYLTRSDWTGTFPKHYGESSGEINTWGNEINCKDSDGNNASCTWKKTASDELIKQLDGNDSGSTVDKSTITDTPTFGKSNGLKVSDMRGLDYDDEQWDKLLDELTEDDYNQLVYFSGYGVDYIKSVEKPFQTDADAATGWFYGGTGKAFPSIMMLTQTWNASLAEDLGVMMGNEALLGGANGWYAPAMNIHRTPFSGRNGEYYSEDGFMSGSMASLEVKGAATKGVYSYIKHFALNDQENHRGDRPGNFSVATWSNEQAIRETYLKPFDMCMHLGDMDMKTVVKKSDGTYENKTVTTPIAKGVMTSFNRLGATWTGGNYALIQQLLRDEWGFNGLIITDNANTSKFMSPYQMLEAGADIKLLNVSEDPTGEQLDFNDAATYHYARQAMHHLLYTVANSNCMNGALPGAGFTFYNQMKVMQIAFNAICGVILALLAFFSVWRWLPGTIKRVAARKETRAAKKAARKAAKA”, the protein production entry is recorded as “failed”. In the case of “MNSAALKSCLERENALVVEFLHALEAETEALMDRRAHESLQAAVQRKETLADDLAQLGAERDALLSGAGLASGPAGTDAAAAAHPELGPLWQALQANAAQAREHNQRNGTLIAVNLRHTQESLDALRQAAGTGAAATYDAQGRGKRGYSSA” it was “not failed”. In the case of “MNSAPFLIFGGILAWLFVYFLRLRRFYAGEFLLGLFIFGIAITIQSIIQKASLVWFNVHAKLLISLWLGFLAGFIQEGIKYIFVKGMTPYKGAMVGLGFGIAEVILLAVVATLAGSSNVPLYLLVASATERFFAVVFHVASTSLLASSNLRIFLGVFTVHGLVDTLASYSQLSRVLNTPKVFLIEAVFGVFALFLLLISLPRIRVEKEEGPKW” it was “failed”; in that of “MNSFYSQEELKKIGFLSVGKNVLISKKASIYNPGVISVGNNVRIDDFCILSGKVTIGSYSHIAAYTALYGGEVGIEMYDFANISSRTIVYAAIDDFSGNALMGPTIPNQYKNVKTGKVILKKHVIIGAHSIIFPNVVIGEGVAVGAMSMVKESLDDWYIYVGVPVRKIKARKRKIVELENEFLKSMNSLEHHHHHH”, “failed”; in that of “MNSKFKGIIFMILASAAFATMNLLSKLAVGVNSYQKTFLTNVVATLIVCFIIAYKKGSFFGKKESRKYLLVRGVTGTLSILTNYYALDKMFLSDATILTKLAPFFTIIFSYLLISEKITKKQFTLLIVAFAGSLFVIKPQFSTAIIPSLIGVASAAFAGIAYTMIRVIGDKEDFWTIILSFTSIATIVMLPSMFMNTDNLTLQNILLLVSAGIAFTLGQVALTIAYKNAPASEISMYDYIGLIIAAIYGFMFFKEIPDFLSFTGYIIIVGSSLLNILGNKKTSNKEINEDSSLVSTD”, “failed”.

Turning to “MNSKNTICLWYDSAALEAATFYAETFPDSAVLAVHRAPGDYPSGKEGDVLTVEFRVMGIPCLGLNGGPAFRHSEAFSFQVATDDQAETDRLWNAIVDNGGEESACGWCRDKWGISWQITPRVLSEAIASPDRAAARRAFEAMMTMGRIDIATIEKAFKG”, the protein production entry is “not failed”. In the case of “MNSLPIADLLASAVIAACIVISTMRGVIAEAGSMVAWVVSFFFAKLFAAPFADLAFASFQPRLFALALSFISLFVIACLIQKMLRSLLTGAVSAVGLGFANRILGGVFGALKGVLIVTLLIMLASKTDLPDTEEWQQSYTVPFFVSLSEAVLNHTDNAPESLDDD” it was “failed”; in that of “MNSPAHALTKPRRRTPRRAVRLARRALVGLTAAAILAGTGMGWVTYHGALDGITTSNALAGESGSVGDTENILIMGLDSRLDQHGNPLPEDVYQALHAGDETVGGYNANVLIVVHLPGDGGPATAFSIPRDDYVDLAGCPSGICKGKVKQAYGFAYQAEMEATESEEEDPATREQKAREAGRKAEIATVRNLLGIPIDHFVEVTLGAFFEIAKAVAPITVCLNDDTSDPYSGADFRKGVQQIDAAQAMAFVRQRRDINDENFTDLDRTRRQQAFLAALVSALRQSGALSSPSKLRGLLDVTKQNVALDAGFDLASFTKRASALTDAPPTLYTLPIKEFGQNAYGEDINIIDVPTIRKIVHDLVSKDDPATTTATPDKPELNGHGATLDVINGSTYTGLAAKLQTTFAADNFTEGQIGDAEALEPATTIDYGPGADAAAHSLATELGVTATPSDWVLADTVRLTIGTDFPGTDYLGADMFTSTTSGASESESYGPSETAELTPITTVAATATGTYTPAPTDLSQMTASGIPCVK”, “failed”. As for “MNSPETTWTEENSSCALHLHWYALCERKDLVANSGVVAWLDGKQLALFYLPDTAQGEQLFAIDNRDPKSGANVIGRGLTGQIAGELVIASPLYKQHFRLHDGSCIEYPEQRLEVWPVRLNGERVEIAV”, the protein production result is recorded as “failed”. In the case of “MNSPSHLEVREGADINLYNQILIPLYGADIRDSVVQYGLSLAETYDAALHVLYIQDEERTEVESDQVTKQEEWDAAAVIEPVVDQAHSLGLNVIPAVDSGHSPGVIREYAEENDIDLLVHQKPTQTRLARILRRDVSSHIIQNISLPVLTIPDMDPSDPVGELSTSQFTDILVPTDGYDEASVAFKHGLQIAKRYDATLHGLFIISEQSYSSRPGFTWEEVTDSWEQRGTRLLEDITEKAATLDVPVRTTLRFGQPQQEILKYTEVTDIDLVTMGTRGLTGIRRLLQGSVAAQVIEEADYPVLTINRRTAELKKHPYTFLRKTNQNRKSRLY” it was “failed”; in that of “MNSRAADQLELDGLPGTPPDFYRERQRSRVERYQSPAGAPLQCSVQVQTTQEHPLWTSHVWSGARALADTLCWQPELIAGKTVCELGAGAGLVSIVAFLAGADQVVATDYPDPEILNSLESNIREHTANSCSSETVKRASPKVVPYRWGDSPDSLQRCTGLQRFQVVLLADLLSFHQAHDALLRSVKMLLALPANDPTAVALVTFTHHRPHLAERDLAFFRLVNADGALIAEPWLSPLQMDPMFPDDPGDVCIRGQVHRWRLRWRSAASASANIPAHARNE”, “not failed”. In the case of “MNSSIVNAGIDPQVRESLKSFVGEAIDYANTSGKDAAIAKFNDQNGTFVRGNLYVYAFDYNGTTLALPYQPQLIGTDLSGLQDPYGVNYTKVEIFLEHHHHHH” it was “failed”; in that of “MNSTIIIVGILALVFIFLVFGVSSKPLRFIGKALFHVTLGVALLFIVNVVGTYFDFHLPINLGTATITSLLGLPGVAALVVIKLYIMPR”, “failed”. In the case of “MNTARANRENGAGNIYIGFGDSQLSLMDSHQARPEPVHTVCSKPPLKRPPSREEHLRQRLVKTIHSQRIISGKNRLSNPPRMANPQANSIIGISTYFGPTN” it was “failed”.

With “MNTIDIAKSYITAIQTGDHATLGSIISPDVIWHQPGNHQFSGTHRGMAVVGPMLGKMMEVSNGTFAISRADDYMASGDWVAITLEFSGQANGVTLKQAGVDLLRIEDGKIVEVRLFSADQTQEDAFWGR”, the protein production result was “not failed”.
